Data published in patent publication US8563520B2, “Treatment of ocular disease with inhibitors of alpha2 macroglobulin protein” (McGill University, priority 2005, dated 2013).
Read-outs that look alike come from different tables or passages of the source.

System: Rat Retina
Description: The following experiment was conducted in order to assess changes in gene expression induced in the retina after intraocular injection of α2 macroglobulin protein. 2 μg of α2 macroglobulin protein was intraocularly injected into the right eye of rats (n=3) and the left eye was used as a control. One rat was tested at Day 3, one rat was tested at Day 7 and one rat was tested at Day 14. Retinas were isolated and mRNA was collected. Samples from each of the rats were studied by gene microassays. Retinas were carefully dissected out to insure that only retinal mRNAs were prepared for gene microarray studies. Samples were obtained from control eyes.
Total RNA was isolated from retinal tissue using TRIZOL® (Life Technologies). RNA was then further purified using the RNAEASY® (QIAGEN®). The integrity of the RNA samples was assessed by running aliquots on RNA 6000 Nano LabChip (Agilent) using the 2100 bioanalyzer (Agilent).
Probe synthesis, hybridization and scanning were done according to Affymetrix protocol, as a service at the McGill University and Genome Quebec Innovation Centre. For the experiments shown, Rat U34 Genome Arrays (8,700 genes, Affymetrix) were used. Briefly, RNA samples were first converted to double stranded cDNA (T7-(dT)24 primer (Genset)). Then the cDNAs were purified and used to generate the biotinylated cRNA probes (Bioarray High Yield RNA transcript labeling kit (Enzo diagnostics)). An aliquot of the purified cRNA was analyzed on RNA 6000 Nano LabChip (Agilent) to verify the integrity and size distribution. Immediately after hybridization the chip was placed in the Affymetrix GeneChip Fluidics Station 400 (Affymetrix). In total, 10 low-stringency washes (63 SSPE, 0.01% Tween-20, 0.005% Antifoam) and 4 high-stringency washes (100 mM MES, 0.1 M NaCl, 0.01% Tween-20, 50 C) were performed (all reagents from Sigma). The array was then incubated with SAPE® (streptavidin/phycoerythrin stain, Molecular Probes), followed by 10 low stringency washes. The array was incubated with biotinylated anti-streptavidin antibody (Vector Laboratories) and washed again with 15 low stringency washes. Specifically bound probe was detected by placing the array in the Agilent GeneArray scanner 2500 (Affymetrix). The scanned images were analyzed using the Microarray Analysis Suite version 5.0 (Affymetrix).
The fold change was analyzed by […] data for the control eye from the data on the eye injected with α2 macroglobulin. A fold change of 2 or greater indicates upregulation. A fold of 0.5 to 2 indicates no change. A fold change of 0.5 or less indicates downregulation.

[1] = gene ADP-ribosylation factor guanine nucleotide-exchange factor 1 (1392282_at)
[2] = gene Bone morphogenetic protein receptor, type 1A (1390398_at)
[3] = gene CDNA clone IMAGE: 7321089 (1389986_at)
[4] = gene CREB binding protein (1385852_at)
[5] = gene Ewing sarcoma breakpoint region 1 (1378518_at)
[6] = gene Exosome component 8 (predicted) (1386936_at)
[7] = gene FERM domain containing 4B (1384681_at)
[8] = gene Fc receptor, IgG, low affinity IIb (1371079_at)
[9] = gene High density lipoprotein binding protein (1375309_at)
[10] = gene RT1 class II, locus Ba (1370822_at)
[11] = gene RT1 class II, locus Bb (1371033_at)
[12] = gene RT1 class II, locus Da (1370883_at)
[13] = gene RT1 class II, locus Db1 (1370383_s_at)
[14] = gene S100 calcium binding protein A11 (calizzarin) (1375170_at)
[15] = gene Similar to CG10084-PA (1394756_at)
[16] = gene Similar to NICE-3 (1397412_at)
[17] = gene Similar to expressed sequence AV312086 (predicted) (1390657_at)
[18] = gene Similar to hypothetical protein D630010C10 (1385108_at)
[19] = gene Thyroid hormone receptor interactor 12 (1380803_at)
[20] = gene Transcribed locus (1381100_at)
[21] = gene Transcribed locus (1382211_at)
[22] = gene Transcribed locus (1382368_at)
[23] = gene Transcribed locus (1382510_at)
[24] = gene Transcribed locus (1384014_at)
[25] = gene Transcribed locus (1385552_at)
[26] = gene Transcribed locus (1391757_at)
[27] = gene Transcribed locus (1392155_at)
[28] = gene Transcribed locus (1392675_at)
[29] = gene Transcribed locus (1395390_at)
[30] = gene Transcribed locus (1397883_at)
[31] = gene actin related protein 2/3 complex, subunit 1B (1386925_at)
[32] = gene argininosuccinate synthetase (1370964_at)
[33] = gene ash1 (absent, small, or homeotic)-like (Drosophila) (predicted) (1382862_at)
[34] = gene cold inducible RNA binding protein (1382809_at)
[35] = gene complement component 1, s subcomponent (1387893_at)
[36] = gene complement component 3 (1368000_at)
[37] = gene complement component 4a (1370892_at)

B1: α2m: α2 macroglobulin protein injected intraocularly into normal rat eyes (protein, UniProt P06238 28-1472, looked up)
Alpha-2-macroglobulin: SAPQKPIYMVMVPSLLHAGTPEKACFLFSHLNETVAVRVSLESVRGNQSLFTDLVVDKDLFHCTSFTVPQSSSDEVMFFTVQVKGATHEFRRRSTVLVKKKESLVFAQTDKPIYKPGQTVRFRVVSLDESFHPLNELIPLLYIQDPKNNRIAQWQNFNLEGGLKQLSFPLSSEPTQGSYKVVIRTESGRTVEHPFSVEEFVLPKFEVRVTVPETITILEEEMNVSVCGIYTYGKPVPGRVTVNICRKYSNPSNCFGEESVAFCEKLSQQLDGRGCFSQLVKTKSFQLKRQEYEMQLDVHAKIQEEGTGVEETGKGLTKITRTITKLSFVNVDSHFRQGIPFVGQVLLVDGRGTPIPYETIFIGADEANLYINTTTDKHGLARFSINTDDIMGTSLTVRAKYKDSNACYGFRWLTEENVEAWHTAYAVFSPSRSFLHLESLPDKLRCDQTLEVQAHYILNGEAMQELKELVFYYLMMAKGGIVRAGTHVLPLKQGQMRGHFSILISMETDLAPVARLVLYAILPNGEVVGDTAKYEIENCLANKVDLVFRPNSGLPATRALLSVMASPQSLCGLRAVDQSVLLMKPETELSASLIYDLLPVKDLTGFPQGADQREEDTNGCVKQNDTYINGILYSPVQNTNEEDMYGFLKDMGLKVFTNSNIRKPKVCERLRDNKGIPAAYHLVSQSHMDAFLESSESPTETRRSYFPETWIWDLVVVDSAGVAEVEVTVPDTITEWKAGAFCLSNDTGLGLSPVVQFQAFQPFFVELTMPYSVIRGEAFTLKATVLNYLPTCIRVAVQLEASPDFLAAPEEKEQRSHCICMNQRHTASWAVIPKSLGNVNFTVSAEALNSKELCGNEVPVVPEQGKKDTIIKSLLVEPEGLENEVTFNSLLCPMGAEVSELIALKLPSDVVEESARASVTVLGDILGSAMQNTQDLLKMPYGCGEQNMVLFAPNIYVLDYLNETQQLTQEIKTKAIAYLNTGYQRQLNYKHRDGSYSTFGDKPGRNHANTWLTAFVLKSFAQARKYIFIDEVHITQALLWLSQQQKDNGCFRSSGSLLNNAMKGGVEDEVTLSAYITIALLEMSLPVTHPVVRNALFCLDTAWKSARGGAGGSHVYTKALLAYAFALAGNQDTKKEILKSLDEEAVKEEDSVHWTRPQKPSVSVALWYQPQAPSAEVEMTAYVLLAYLTTEPAPTQEDLTAAMLIVKWLTKQQNSHGGFSSTQDTVVALHALSKYGSATFTRAKKAAQVTIHSSGTFSTKFQVNNNNQLLLQRVTLPTVPGDYTVKVTGEGCVYLQTSLKYSVLPREEEFPFTVVVQTLPGTCEDPKAHTSFQISLNISYTGSRSESNMAIADVKMVSGFIPLKPTVKMLERSVHVSRTEVSNNHVLIYLDKVSNQTVNLSFTVQQDIPIRDLKPAVVKVYDYYEKDEFAVAKYSAPCSTDYGNA
Fold Change (α2m vs normal) Day 3 [1]: 0.5
Fold Change (α2m vs normal) Day 7 [1]: 0.3
Fold Change (α2m vs normal) Day 3 [2]: 0.4
Fold Change (α2m vs normal) Day 7 [2]: 0.2
Fold Change (α2m vs normal) Day 14 [2]: 2.6
Fold Change (α2m vs normal) Day 3 (gene CD74 antigen (1367679_at)): 10.1
Fold Change (α2m vs normal) Day 7 (gene CD74 antigen (1367679_at)): 6.5
Fold Change (α2m vs normal) Day 3 [3]: 0.5
Fold Change (α2m vs normal) Day 7 [3]: 0.3
Fold Change (α2m vs normal) Day 14 [3]: 2.9
Fold Change (α2m vs normal) Day 3 [4]: 0.5
Fold Change (α2m vs normal) Day 7 [4]: 0.4
Fold Change (α2m vs normal) Day 3 [5]: 0.4
Fold Change (α2m vs normal) Day 7 [5]: 0.1
Fold Change (α2m vs normal) Day 3 [6]: 0.4
Fold Change (α2m vs normal) Day 7 [6]: 4.3
Fold Change (α2m vs normal) Day 14 [6]: 2.4
Fold Change (α2m vs normal) Day 3 [7]: 0.5
Fold Change (α2m vs normal) Day 7 [7]: 0.2
Fold Change (α2m vs normal) Day 14 [7]: 2.3
Fold Change (α2m vs normal) Day 3 [8]: 9.4
Fold Change (α2m vs normal) Day 7 [8]: 2.1
Fold Change (α2m vs normal) Day 3 [9]: 0.5
Fold Change (α2m vs normal) Day 7 [9]: 0.5
Fold Change (α2m vs normal) Day 3 (gene LOC361776 (1373010_at)): 20.1
Fold Change (α2m vs normal) Day 7 (gene LOC361776 (1373010_at)): 0.5
Fold Change (α2m vs normal) Day 3 [10]: 8.3
Fold Change (α2m vs normal) Day 7 [10]: 4.5
Fold Change (α2m vs normal) Day 3 [11]: 6.8
Fold Change (α2m vs normal) Day 7 [11]: 5.2
Fold Change (α2m vs normal) Day 3 [12]: 16.1
Fold Change (α2m vs normal) Day 7 [12]: 11.3
Fold Change (α2m vs normal) Day 3 [13]: 4.9
Fold Change (α2m vs normal) Day 7 [13]: 3.5
Fold Change (α2m vs normal) Day 3 [14]: 2.0
Fold Change (α2m vs normal) Day 7 [14]: 4.5
Fold Change (α2m vs normal) Day 3 [15]: 0.5
Fold Change (α2m vs normal) Day 7 [15]: 0.3
Fold Change (α2m vs normal) Day 14 [15]: 2.4
Fold Change (α2m vs normal) Day 3 [16]: 0.5
Fold Change (α2m vs normal) Day 7 [16]: 0.4
Fold Change (α2m vs normal) Day 14 [16]: 2.0
Fold Change (α2m vs normal) Day 3 [17]: 0.4
Fold Change (α2m vs normal) Day 7 [17]: 0.3
Fold Change (α2m vs normal) Day 3 [18]: 0.4
Fold Change (α2m vs normal) Day 7 [18]: 0.2
Fold Change (α2m vs normal) Day 3 [19]: 0.3
Fold Change (α2m vs normal) Day 7 [19]: 0.4
Fold Change (α2m vs normal) Day 3 [20]: 0.4
Fold Change (α2m vs normal) Day 7 [20]: 0.3
Fold Change (α2m vs normal) Day 14 [20]: 5.4
Fold Change (α2m vs normal) Day 3 [21]: 0.3
Fold Change (α2m vs normal) Day 7 [21]: 4.2
Fold Change (α2m vs normal) Day 3 [22]: 0.4
Fold Change (α2m vs normal) Day 7 [22]: 0.2
Fold Change (α2m vs normal) Day 14 [22]: 2.7
Fold Change (α2m vs normal) Day 3 [23]: 0.4
Fold Change (α2m vs normal) Day 7 [23]: 0.3
Fold Change (α2m vs normal) Day 3 [24]: 0.5
Fold Change (α2m vs normal) Day 7 [24]: 4.2
Fold Change (α2m vs normal) Day 14 [24]: 2.0
Fold Change (α2m vs normal) Day 3 [25]: 0.5
Fold Change (α2m vs normal) Day 7 [25]: 0.3
Fold Change (α2m vs normal) Day 3 [26]: 0.5
Fold Change (α2m vs normal) Day 7 [26]: 0.2
Fold Change (α2m vs normal) Day 14 [26]: 2.0
Fold Change (α2m vs normal) Day 3 [27]: 2.4
Fold Change (α2m vs normal) Day 7 [27]: 16.6
Fold Change (α2m vs normal) Day 3 [28]: 0.4
Fold Change (α2m vs normal) Day 7 [28]: 0.3
Fold Change (α2m vs normal) Day 3 [29]: 0.4
Fold Change (α2m vs normal) Day 7 [29]: 4.1
Fold Change (α2m vs normal) Day 3 [30]: 2.4
Fold Change (α2m vs normal) Day 7 [30]: 17.0
Fold Change (α2m vs normal) Day 3 [31]: 2.7
Fold Change (α2m vs normal) Day 7 [31]: 2.0
Fold Change (α2m vs normal) Day 3 [32]: 0.4
Fold Change (α2m vs normal) Day 7 [32]: 2.4
Fold Change (α2m vs normal) Day 3 [33]: 0.5
Fold Change (α2m vs normal) Day 7 [33]: 0.2
Fold Change (α2m vs normal) Day 3 (gene cadherin 1 (1386947_at)): 0.4
Fold Change (α2m vs normal) Day 7 (gene cadherin 1 (1386947_at)): 9.6
Fold Change (α2m vs normal) Day 14 (gene cadherin 1 (1386947_at)): 2.4
Fold Change (α2m vs normal) Day 3 [34]: 0.4
Fold Change (α2m vs normal) Day 7 [34]: 0.1
Fold Change (α2m vs normal) Day 14 [34]: 2.2
Fold Change (α2m vs normal) Day 3 [35]: 6.0
Fold Change (α2m vs normal) Day 7 [35]: 3.6
Fold Change (α2m vs normal) Day 3 [36]: 8.4
Fold Change (α2m vs normal) Day 7 [36]: 2.1
Fold Change (α2m vs normal) Day 3 [37]: 2.2
Fold Change (α2m vs normal) Day 7 [37]: 2.3
Fold Change (α2m vs normal) Day 3 (gene complement factor B (1389470_at)): 3.9
